± gives the standard deviation.

The series can be described thus: protein stability index of a GFP-peptide fusion (GPS, HEK-293T) (PSI 1-6); higher = more stable. As to conditions: c terminus: a fixed tail appended.
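Also: 24-mer peptide tiles fused after GFP, lentivirally expressed, FACS-sorted into six equal bins by GFP/DsRed ratio, decoded by Illumina sequencing, PSI is the read-weighted mean bin number.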

For SNFEQTQIQEFKEAFTLMDQNRDG [MYL5], the protein stability index is 5.11 ± 0.2 (treatment: DMSO) and 4.93 ± 0.33 (treatment: MLN4924 1 uM, 8 h).
On to LIGGLEAQLSELRCEMEAQNQEYK [KRT15], for which the protein stability index was found to be 4.1 ± 0.15 (treatment: DMSO) and 4.52 ± 0.44 (treatment: MLN4924 1 uM, 8 h).
As for REDNSGSDVLIGDILVLLGASLYA [SLC35F2], the protein stability index by setting is: (treatment: DMSO) 2.79 ± 0.18; (treatment: MLN4924 1 uM, 8 h) 2.99 ± 0.61.
As to LVVASGVIYCLGGYDGLNILNSVE [KLHL12], the protein stability index reads like this: (treatment: DMSO) 3.28 ± 0.25; (treatment: MLN4924 1 uM, 8 h) 3.03 ± 0.16.
For MPHARTETSVGTYESHSTSELEDL [TPD52L3], in that order: 5.43 ± 0.18 and 5.37 ± 0.3.
With RFQDGDNILEKEVLPPIHAYGNRT [FEM1B], the protein stability index reads like this: (treatment: DMSO) 3.96 ± 0.14; (treatment: MLN4924 1 uM, 8 h) 4.001 ± 0.01.
Take AAPGALGSLHAGGARLVAACSAWL [AUH]: the protein stability index by setting is: (treatment: DMSO) 2.65 ± 0.047; (treatment: MLN4924 1 uM, 8 h) 2.39 ± 0.34.
Take DDAGTSGGPSSPPSDPPAMSPGPL [C2CD2L]: the protein stability index was found to be 5.38 ± 0.38 (treatment: DMSO) and 5.37 ± 0.32 (treatment: MLN4924 1 uM, 8 h).
PFAPEPTPPTTTAEIATASASAST [SNAP91] showed a protein stability index (treatment: DMSO) of 5.37 ± 0.16 and a protein stability index (treatment: MLN4924 1 uM, 8 h) of 5.41 ± 0.14.
The like results for LARKIASRNEFDRTIAETEAAYLK [SSNA1] were, in that order, 3.57 ± 0.23 and 3.74 ± 0.3.
On to NIAIMTEEPELSPAYLISEAMRRS [GFOD1], for which the protein stability index came out at 3.5 ± 0.27 (treatment: DMSO) and 3.72 ± 0.2 (treatment: MLN4924 1 uM, 8 h).
With RLDASTSHQNLRVDDLSVEWDAMG [FSD1], the protein stability index runs as follows: (treatment: DMSO) 4.51 ± 0.34; (treatment: MLN4924 1 uM, 8 h) 4.62 ± 0.34.
As to MSAAQGWDRNRRRGGGAAGAGGGG [KLHDC10], the protein stability index turned out to be 4.97 ± 0.27 (treatment: DMSO) and 4.92 ± 0.25 (treatment: MLN4924 1 uM, 8 h).
For the sequence SSDESPGSKCSPEDLATAYNNRGQ [TTC32], the protein stability index by setting is: (treatment: DMSO) 5.28 ± 0.18; (treatment: MLN4924 1 uM, 8 h) 5.44 ± 0.12.
As to SAPHLENSGHTIFNDPFFIVETVC [KCNA4], the protein stability index (treatment: DMSO) came to 2.43 ± 0.23 and the protein stability index (treatment: MLN4924 1 uM, 8 h) turned out to be 2.46 ± 0.38.
For the sequence PGYLPYSPEPPSLYGALNPQYEFK [IRX6], the protein stability index is 2.87 ± 0.36 (treatment: DMSO) and 3.16 ± 0.33 (treatment: MLN4924 1 uM, 8 h).
VPDREEGGSGGGGGGDEDGSLGSR [SMAD6]: the protein stability index runs as follows: (treatment: DMSO) 5.59 ± 0.24; (treatment: MLN4924 1 uM, 8 h) 5.33 ± 0.3.
As to IGRGTKVILHLKEDQTEYLEERRV [HSP90AB1], the protein stability index is 3.34 ± 0.16 (treatment: DMSO) and 3.57 ± 0.29 (treatment: MLN4924 1 uM, 8 h).
For the sequence DTELLGQATLPVGSPSRPLSRRQL [C2CD2L], the protein stability index stood at 4.74 ± 0.18 (treatment: DMSO) and 4.81 ± 0.15 (treatment: MLN4924 1 uM, 8 h).
The like results for GAVTASKHSNSPPLVTPPQSPVSP [SMTNL2] were, in that order, 5.33 ± 0.25 and 5.26 ± 0.19.
The like results for QFTSSSSMKGSCGIGGGIGGGSSR [KRT16] were, in that order, 3.29 ± 0.26 and 3.48 ± 0.32.
On to LNTRSQAPLLRWVLTLSFLVATVA [HMOX1], for which the protein stability index was found to be 2.33 ± 0.46 (treatment: DMSO) and 2.15 ± 0.31 (treatment: MLN4924 1 uM, 8 h).
The like results for GRHLELANQKLSEKLAAGALPHIN [CCDC3] were, in that order, 3.46 ± 0.42 and 3.79 ± 0.36.
The like results for LSKASEPKYQLFVPQLVTGRCATR [RNF180] were, in that order, 2.88 ± 0.4 and 2.94 ± 0.2.
LERKFRCQQEQLFQTRQEMTSMSA [LRRC45]: the protein stability index is, setting by setting: (treatment: DMSO) 3.22 ± 0.29; (treatment: MLN4924 1 uM, 8 h) 3.21 ± 0.24.
As for FSQETVMKFVPRYSLVLELSDSGA [APMAP], the protein stability index was found to be 2.75 ± 0.71 (treatment: DMSO) and 2.09 ± 0.27 (treatment: MLN4924 1 uM, 8 h).
Regarding NGDVSAPSAILRTPESTKPGPVCQ [ANKRD40], the protein stability index is, setting by setting: (treatment: DMSO) 4.782 ± 0.036; (treatment: MLN4924 1 uM, 8 h) 4.83 ± 0.13.
As for MATATPVPPRMGSRAGGPTTPLSP [LMNB1], the protein stability index reads like this: (treatment: DMSO) 4.21 ± 0.17; (treatment: MLN4924 1 uM, 8 h) 4.24 ± 0.29.
The sequence VQKDHENYMKILLKVGGILVMPIE [PCMTD1] had a protein stability index (treatment: DMSO) of 2.88 ± 0.67 and a protein stability index (treatment: MLN4924 1 uM, 8 h) of 2.16 ± 0.48.
Take FDFDDDGTLNREDLSRLVNCLTGE [CIB1]: the protein stability index reads like this: (treatment: DMSO) 4.21 ± 0.21; (treatment: MLN4924 1 uM, 8 h) 4.29 ± 0.34.
The like results for QCSMPLHVAPLLAAAGLHASPMSA [NR2F2] were, in that order, 2.58 ± 0.26 and 2.63 ± 0.24.
As to GTFCSLDICLAQLEELGTLNVFQT [PTPN9], the protein stability index by setting is: (treatment: DMSO) 2.93 ± 0.92; (treatment: MLN4924 1 uM, 8 h) 2.24 ± 0.46.
Take HRSSRETRDYAPPSRGHAYRDYGH [RBMY1A1]: the protein stability index runs as follows: (treatment: DMSO) 3.87 ± 0.18; (treatment: MLN4924 1 uM, 8 h) 3.92 ± 0.17.
For the sequence DLAALKQRLEEETRKREDAEHNLV [PRPH], the protein stability index was found to be 4.96 ± 0.46 (treatment: DMSO) and 4.6 ± 0.4 (treatment: MLN4924 1 uM, 8 h).
For the sequence PGLLSLATTSASDSLKPEQLDIEE [TFE3], the protein stability index reads like this: (treatment: DMSO) 5.35 ± 0.23; (treatment: MLN4924 1 uM, 8 h) 5.55 ± 0.17.
Take FGGPFVESSTREVVFPYTSKSCMR [RHOBTB2]: the protein stability index is, setting by setting: (treatment: DMSO) 2.54 ± 0.8; (treatment: MLN4924 1 uM, 8 h) 2.98 ± 0.75.

Values taken from the supplement of paper PMC10567573.
